Assay results published in patent US11130793B2, “GLP-1/GLP-2 dual agonists” (Zealand Pharma A/S, priority 2016, dated 2021).
Blank lines part the entries; values can stand above or below the binder they belong to. Square brackets hold non-standard residues; d marks the D form. Aib = CC(C)(N)C(=O)O

What was measured:
[1] = target: T1, human GLP-2 receptor (hGLP2-R) (human, UniProt O95838); experiment: cell-based or functional assay
T1 sequence: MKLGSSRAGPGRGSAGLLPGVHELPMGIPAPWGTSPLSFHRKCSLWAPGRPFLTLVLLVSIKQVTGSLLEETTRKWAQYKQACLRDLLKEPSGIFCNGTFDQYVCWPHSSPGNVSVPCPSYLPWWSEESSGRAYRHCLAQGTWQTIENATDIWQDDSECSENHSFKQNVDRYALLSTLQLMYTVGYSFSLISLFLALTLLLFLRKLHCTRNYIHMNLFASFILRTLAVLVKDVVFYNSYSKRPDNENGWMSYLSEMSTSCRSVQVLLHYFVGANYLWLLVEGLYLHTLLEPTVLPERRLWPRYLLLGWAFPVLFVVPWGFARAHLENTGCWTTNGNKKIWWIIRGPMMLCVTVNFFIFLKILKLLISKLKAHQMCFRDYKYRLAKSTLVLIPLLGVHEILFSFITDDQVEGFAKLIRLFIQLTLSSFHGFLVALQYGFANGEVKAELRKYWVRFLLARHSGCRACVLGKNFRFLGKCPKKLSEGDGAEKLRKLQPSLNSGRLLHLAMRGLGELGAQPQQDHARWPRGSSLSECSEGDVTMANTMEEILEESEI

[2] = target: human glucagon-like peptide 1 receptor (GLP-1R) (human, UniProt P43220); experiment: cell-based or functional assay

- EC50 GLP-2 (nM); cAMP AlphaScreen [1]: 0.19 nM
- EC50 GLP-1 (nM); cAMP AlphaScreen [2]: 0.013 nM
B1: Compound 26 (peptide)
peptide: H-H[Aib]EGTFTSELATILDEQAARDFIAWLQAQKITD-OH
SMILES: CC[C@H](C)[C@H](NC(=O)[C@H](Cc1ccccc1)NC(=O)[C@H](CC(=O)O)NC(=O)[C@H](CCCNC(=N)N)NC(=O)[C@H](C)NC(=O)[C@H](C)NC(=O)[C@H](CCC(N)=O)NC(=O)[C@H](CCC(=O)O)NC(=O)[C@H](CC(=O)O)NC(=O)[C@H](CC(C)C)NC(=O)[C@@H](NC(=O)[C@@H](NC(=O)[C@H](C)NC(=O)[C@H](CC(C)C)NC(=O)[C@H](CCC(=O)O)NC(=O)[C@H](CO)NC(=O)[C@@H](NC(=O)[C@H](Cc1ccccc1)NC(=O)[C@@H](NC(=O)CNC(=O)[C@H](CCC(=O)O)NC(=O)C(C)(C)NC(=O)[C@@H](N)Cc1c[nH]cn1)[C@@H](C)O)[C@@H](C)O)[C@@H](C)O)[C@@H](C)CC)C(=O)N[C@@H](C)C(=O)N[C@@H](Cc1c[nH]c2ccccc12)C(=O)N[C@@H](CC(C)C)C(=O)N[C@@H](CCC(N)=O)C(=O)N[C@@H](C)C(=O)N[C@@H](CCC(N)=O)C(=O)N[C@@H](CCCCN)C(=O)N[C@H](C(=O)N[C@H](C(=O)N[C@@H](CC(=O)O)C(=O)O)[C@@H](C)O)[C@@H](C)CC

- EC50 GLP-2 (nM); cAMP AlphaScreen [1]: 0.37 nM
- EC50 GLP-1 (nM); cAMP AlphaScreen [2]: 0.12 nM
B2: Compound 27 (peptide)
peptide: H-H[Aib]EGTFTSELSTILDEQAARDFIAWLHAQKITD-OH
modifications: not fully specified; printed as Hy-H[Aib]EGTFTSELSTILDEQAARDFIAWLHAQKITD-OH

- EC50 GLP-2 (nM); cAMP AlphaScreen [1]: 0.024 nM
- EC50 GLP-1 (nM); cAMP AlphaScreen [2]: 0.11 nM
B3: Compound 28 (peptide)
peptide: H-H[Aib]EGSFTSELATILDEQAARDFIAWLYAHKITD-OH
SMILES: CC[C@H](C)[C@H](NC(=O)[C@H](Cc1ccccc1)NC(=O)[C@H](CC(=O)O)NC(=O)[C@H](CCCNC(=N)N)NC(=O)[C@H](C)NC(=O)[C@H](C)NC(=O)[C@H](CCC(N)=O)NC(=O)[C@H](CCC(=O)O)NC(=O)[C@H](CC(=O)O)NC(=O)[C@H](CC(C)C)NC(=O)[C@@H](NC(=O)[C@@H](NC(=O)[C@H](C)NC(=O)[C@H](CC(C)C)NC(=O)[C@H](CCC(=O)O)NC(=O)[C@H](CO)NC(=O)[C@@H](NC(=O)[C@H](Cc1ccccc1)NC(=O)[C@H](CO)NC(=O)CNC(=O)[C@H](CCC(=O)O)NC(=O)C(C)(C)NC(=O)[C@@H](N)Cc1c[nH]cn1)[C@@H](C)O)[C@@H](C)O)[C@@H](C)CC)C(=O)N[C@@H](C)C(=O)N[C@@H](Cc1c[nH]c2ccccc12)C(=O)N[C@@H](CC(C)C)C(=O)N[C@@H](Cc1ccc(O)cc1)C(=O)N[C@@H](C)C(=O)N[C@@H](Cc1c[nH]cn1)C(=O)N[C@@H](CCCCN)C(=O)N[C@H](C(=O)N[C@H](C(=O)N[C@@H](CC(=O)O)C(=O)O)[C@@H](C)O)[C@@H](C)CC

- EC50 GLP-2 (nM); cAMP AlphaScreen [1]: 0.034 nM
- EC50 GLP-1 (nM); cAMP AlphaScreen [2]: 0.1 nM
B4: Compound 30 (peptide)
peptide: H-H[Aib]EGSFTSELATILDEQAARDFIAWLYRHKITD-OH
modifications: not fully specified; printed as Hy-H[Aib]EGSFTSELATILDEQAARDFIAWLYRHKITD-OH

- EC50 GLP-2 (nM); cAMP AlphaScreen [1]: 0.11 nM
- EC50 GLP-1 (nM); cAMP AlphaScreen [2]: 0.044 nM
B5: Compound 29 (peptide)
peptide: H-H[Aib]EGTFTDELATILDEQAARDFIAWLQAQKITD-OH
modifications: not fully specified; printed as Hy-H[Aib]EGTFTDELATILDEQAARDFIAWLQAQKITD-OH
